Reference: paper PMC6746701, “A phyB-PIF1-SPA1 kinase regulatory complex promotes photomorphogenesis in Arabidopsis” (Nature Communications, 2019)

Assays:
[1] = biological target: T1, strep-tagged full-length SPA1 (SUPPRESSOR OF PHYA-105 1) (Arabidopsis, UniProt Q9SYX2 1-1029); assay: pull-down; 2 µg GST-PIF1 on GST agarose beads, 1 µg SPA1 or mSPA1; 50 mM Tris pH 7.5, 150 mM NaCl, 1 mM EDTA, 0.1% Tergitol NP-40, 0.5 mM DTT; 2 h at 4 °C; Coomassie staining; conditions: both partners purified
T1 construct: 3x Flag was cloned into the SnaBI site of pPIC3.5K SPA1-strep; also called SPA1-strep; wild type SPA1; source: Pichia pastoris GS115, purified (Strep-Tactin Sepharose); not shown: Strep tag, C-terminal, kept
T1 sequence (looked up): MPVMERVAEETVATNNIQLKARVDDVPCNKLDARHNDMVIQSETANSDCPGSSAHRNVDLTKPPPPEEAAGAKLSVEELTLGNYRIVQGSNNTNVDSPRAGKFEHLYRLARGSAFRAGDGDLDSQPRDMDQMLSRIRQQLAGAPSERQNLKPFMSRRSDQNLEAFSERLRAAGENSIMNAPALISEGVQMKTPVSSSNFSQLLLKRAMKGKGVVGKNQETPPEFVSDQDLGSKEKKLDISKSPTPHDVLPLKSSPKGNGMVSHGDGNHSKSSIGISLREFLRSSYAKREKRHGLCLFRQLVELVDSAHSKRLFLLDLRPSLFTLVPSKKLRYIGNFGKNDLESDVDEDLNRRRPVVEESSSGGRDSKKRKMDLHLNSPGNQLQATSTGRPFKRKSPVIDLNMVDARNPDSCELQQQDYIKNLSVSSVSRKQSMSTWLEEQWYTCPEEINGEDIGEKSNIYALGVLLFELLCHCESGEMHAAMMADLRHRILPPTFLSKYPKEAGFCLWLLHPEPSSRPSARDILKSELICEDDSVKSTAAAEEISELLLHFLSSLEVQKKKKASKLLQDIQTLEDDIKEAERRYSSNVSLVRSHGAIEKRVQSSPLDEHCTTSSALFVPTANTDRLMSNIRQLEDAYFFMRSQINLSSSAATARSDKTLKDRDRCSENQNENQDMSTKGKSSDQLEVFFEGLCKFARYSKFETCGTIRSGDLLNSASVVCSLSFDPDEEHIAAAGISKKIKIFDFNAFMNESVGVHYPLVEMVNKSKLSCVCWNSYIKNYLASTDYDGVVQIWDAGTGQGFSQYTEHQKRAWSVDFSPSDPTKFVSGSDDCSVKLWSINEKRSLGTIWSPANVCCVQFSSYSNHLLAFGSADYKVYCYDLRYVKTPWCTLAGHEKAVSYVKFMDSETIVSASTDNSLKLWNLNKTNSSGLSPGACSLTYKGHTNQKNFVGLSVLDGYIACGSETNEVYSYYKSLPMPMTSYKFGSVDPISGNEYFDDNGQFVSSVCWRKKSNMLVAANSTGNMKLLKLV

[2] = biological target: T2, strep-tagged full-length mSPA1 (SPA1 R517E) (Arabidopsis, UniProt Q9SYX2 1-1029, R517E); assay: as above; conditions: both partners purified
T2 construct: SPA1, Arabidopsis, full length, with the kinase-domain point mutation R517E; Same construct as m1 apart from R517E; also called mSPA1-strep; mutant SPA1; source: Pichia pastoris, purified (Strep-Tactin Sepharose); not shown: Strep tag, C-terminal, kept
T2 sequence (looked up): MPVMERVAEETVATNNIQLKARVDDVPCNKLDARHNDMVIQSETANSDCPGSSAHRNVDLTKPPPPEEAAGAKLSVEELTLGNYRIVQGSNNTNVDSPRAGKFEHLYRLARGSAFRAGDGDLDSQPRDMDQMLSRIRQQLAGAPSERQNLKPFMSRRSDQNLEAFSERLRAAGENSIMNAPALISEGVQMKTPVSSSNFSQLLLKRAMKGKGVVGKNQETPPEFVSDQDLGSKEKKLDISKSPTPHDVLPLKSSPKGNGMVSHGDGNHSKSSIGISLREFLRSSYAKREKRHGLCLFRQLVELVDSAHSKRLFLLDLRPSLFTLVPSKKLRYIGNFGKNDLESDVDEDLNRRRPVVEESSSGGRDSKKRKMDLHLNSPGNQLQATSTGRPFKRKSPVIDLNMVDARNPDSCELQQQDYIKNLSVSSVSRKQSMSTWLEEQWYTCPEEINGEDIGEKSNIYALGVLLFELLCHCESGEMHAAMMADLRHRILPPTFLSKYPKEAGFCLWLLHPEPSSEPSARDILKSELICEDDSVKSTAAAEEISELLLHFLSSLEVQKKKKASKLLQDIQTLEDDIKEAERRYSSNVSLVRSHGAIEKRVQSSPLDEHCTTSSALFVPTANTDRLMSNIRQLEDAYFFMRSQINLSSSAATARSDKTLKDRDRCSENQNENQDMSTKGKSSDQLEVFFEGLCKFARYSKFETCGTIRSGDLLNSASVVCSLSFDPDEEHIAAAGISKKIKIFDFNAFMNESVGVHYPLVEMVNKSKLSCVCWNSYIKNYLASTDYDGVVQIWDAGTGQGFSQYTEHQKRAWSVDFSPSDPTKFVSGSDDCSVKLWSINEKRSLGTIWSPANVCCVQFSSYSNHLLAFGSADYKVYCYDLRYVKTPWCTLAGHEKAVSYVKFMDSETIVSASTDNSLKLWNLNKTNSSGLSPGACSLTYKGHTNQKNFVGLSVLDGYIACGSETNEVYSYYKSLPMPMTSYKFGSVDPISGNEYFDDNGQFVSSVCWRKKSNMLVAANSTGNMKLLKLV

B1: GST-PIF1-strep (natural protein, Arabidopsis, UniProt Q8GZM7 1-478, looked up)
chain: MHHFVPDFDTDDDYVNNHNSSLNHLPRKSITTMGEDDDLMELLWQNGQVVVQNQRLHTKKPSSSPPKLLPSMDPQQQPSSDQNLFIQEDEMTSWLHYPLRDDDFCSDLLFSAAPTATATATVSQVTAARPPVSSTNESRPPVRNFMNFSRLRGDFNNGRGGESGPLLSKAVVRESTQVSPSATPSAAASESGLTRRTDGTDSSAVAGGGAYNRKGKAVAMTAPAIEITGTSSSVVSKSEIEPEKTNVDDRKRKEREATTTDETESRSEETKQARVSTTSTKRSRAAEVHNLSERKRRDRINERMKALQELIPRCNKSDKASMLDEAIEYMKSLQLQIQMMSMGCGMMPMMYPGMQQYMPHMAMGMGMNQPIPPPSFMPFPNMLAAQRPLPTQTHMAGSGPQYPVHASDPSRVFVPNQQYDPTSGQPQYPAGYTDPYQQFRGLHPTQPPQFQNQATSYPSSSRVSSSKESEDHGNHTTG
notes: source: E. coli BL21(DE3), purified (Strep-Tactin Sepharose); not shown: GST, N-terminal, kept; Strep tag, C-terminal, kept
binding result [1]: binds | binding result [2]: binds
